According to the domain aggregation screens of Martell et al. (2025):

Assay: soluble fraction after stress (log2 fold change); higher = more stays soluble; pooled small domains, quantitative proteomics
Details: stress: pH 4
How it was run: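 After pH 4 stress, pooled custom libraries of small protein domains were quantified with high-throughput quantitative proteomics. Aggregation propensity is taken from the fold change in each domain's soluble amount following the acid stress. The scale is log2, where higher values mean more stayed soluble.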

| Sequence | soluble fraction (log2) |
| --- | --- |
| HMNDLIKMPYLVGQLYDDVASNQEYADFQFKITEGNDPDKQPGEIMKQDPAADIMVKKNAEVELLVNG | 0.193 |
| HMTKDVIEIVDGNKFVFHKTIATDSVSSVINKYHISEADFRTWNELTGDMKVGEEYIVQLSLH | -0.576 |
| HMSRELVILGNSMLNNALKAFHVSPASIKKKHWDKLILDYHLESKNNILIDIALGKRINVMVAHQLTSIID | ≥ 0.43 |
| HMDSLELADEVGRVSEALQELRPHQREVLELSLVHGRSHQQISEKTGLALGTVKSHARRGLMRVREMLGV | -0.162 |
| HMGSEEMLGALGVVERATDDGDWWIAVHGEHWRARSAQALVPGDRVRVARIDGLTLTVTPIA | 0.0708 |
| HMETPSNTAGITHATSDGYIFKGESDIIGRNSFGFIVKHGSHNHIIPFDSLRGTKWEYLINKYT | -0.03 |
| HMYPFSEETLKEKIREYLKTNRSINRRVLEREFYIRKQTALNWLNRLVDSGFLIKEGVRNSPVYFLAE | 0.26 |
| HMKISIDNPSVLLDKLATLFPDTSKNKLRKMLTEGRIYVNDNIEHRAKRELINGDTVKILDKTTSKE | -0.0228 |
| HMGSRRFGDSNHAAKLTEEQVVEIRELAAAGATTKFLAEMVGMHPNYVGLILRGLSWPEAGGPLRVA | 0.0889 |
| HMNTRWDDAAQTWLRKVIEQQPVLVQISAAKRLRDQAEQRAREAGEEVVTEQHVKRAGLELGFGEP | -0.239 |
| HMGFSDDEHNALADADLKKALEVTTNKSETQYNIAKLIYSYIISLGDKKPYGDWSYDKALSIIHDA | -0.00141 |
| HMALRFMAYGRINGTNVHFRTGASASTASLGRYSRGTEFGVYDKIGGWYRVRLLSTGQEGYVYSRYLTLTG | -0.0807 |
| HMQPADYSDLYAAAKSAGEADMRAAFALTDKQERTAAVNAARETIKAALSEEQLADANLGSALKKLEAGV | -0.261 |
| HMNSEELFLRRIAQELIDQHGKDLHRIIVVLPSNRSKVFLKKFLFEILGSAFLTPQLMLLPQFVKSIV | -0.34 |
| HMGAATQADIARVQELLNRLGYDAGSPDGLMGPRTRDAILEYQLTEGLETTGTVTRETLASLEARL | -0.939 |
| HMSFYSVVISQDGSMLVAENRNEIYSNEELLELASEVNEKTGTIGTIGSLMYYKADKGGYTLITFLDNS | -2.05 |
| HMLQLKEPLKKVYERLTPVPKTAETILAELWEKGEYLDIAALHRALMELELSGYVRQSSPGYFGTSA | 0.00945 |
| HMQSMEIDENEIPSIDKLSEYIEYFKRIYNALFDDKQLAITNIDVLERHFANNFNTLRFKMDE | -0.534 |
| HMTHSEYVGRHGIAATSLRPAGAATIDGSRVDVVTSGEYIEKGTPIEVMTVNGSTVRVKAVPQIP | 0.08 |
| HMGEPQAWNELIGNLLRQWEARQTGWTPARKREALDRVLGAADPAALYTRLQGLLKSWTQAMTDADA | -0.956 |
| HMPYHSEAWHKVMKSHWLTLSREEAYMHEGRTGASTINIVFQRELGREATQEEIESIYQEKSVLFNSYP | -1.37 |
| HMLPKAERREQLMAVARSVFAEQGYHTTSMEIIAETAGVSKPLLYQHFPSKLDLYLALLDAGID | -1.1 |
| HMETTVPNVLNHNISTGEILLKENNLNFRIQYIPSNKDEAVGTIINSVPTSGEKVKFGTVVDLKVL | -0.0719 |
| HMDSKYLRIFSTLIDEMEKMSPGEQLQSERELSQRFQVSPMTVRRALHKLSTEGYTSAIPGKGTFVRK | -0.0388 |
| HMKPKDILLPNFTNLTLDEAKAKAEEVKLNLNVSEEKYDVQIEEGKIISQDPKYQPNYTVKEGSTVNVVVS | 0.0508 |
| HMSYQADEIKEKLIDILQNQKTGLSGLEISERIGINRITMTKYLQVFAAEGFIKQKNIGNVIIWFIEDGTE | -0.8 |

| Sequence | soluble fraction (log2) |
| --- | --- |
| HMKITTKNYFKAIAEVGVENLPAALKKSHDLIEERTSKGADWSVYEHDAEVRRVFDLTFEKLFEFIDQ | -1.23 |
| HMTKQDYLTALQQELNKNAVADAEDIVSEYEQHFQFKLADGFTEEEIAAKLGAPAQIALQFAG | -1.64 |
| HMEEIIPIRFLRHRVKRRETIFGLTQKYNITEDQLKRYNTRLYSEALERKMVLQIPVFPEVDED | -0.667 |
| HMSLDLERAVALLSLPRPVGNHPEDGELVEAGIGRYGPYVKHGSKYANLPDADEVFTIGMNRAVEVLAAK | -0.261 |
| HMTDYREILRLLSLGLSRTQIADSLNVSRTTVIHTLQRAVAQELDWQTAEGMSDRELVAKLFPV | -0.564 |
| HMEIYIDGNKYVGELRNGKPNGRGTITYTGDGSKYVGEWKNGKRYGRGKMAYTNGTTKEGVWKDDEFLYAT | 0.377 |
| HMAVQPMDQVKAWLAEDNPADIKLLVPVLQKLDLLDYEQVRGEVADRAGVRKSLLDEAVKGN | -0.119 |
| HMATSNDTQITGSLALRFDGSGDTFTVNVNGDDKLEINTEGTVIYKPLTTAPTYVSGGLFFSSSGDFYVG | -0.163 |
| HMKHAIKEKIRNEYVHGYLNEEGYRVMPTLDELIRKYEVPASSTYRASSKEGWKKQKEAFLEHLRGEIDA | -0.0601 |
| HMKEQIKVPDLSNKTPEEAKKELNTLGLGARKGGEESSDTVEEGLITRQEPAAGEQVDKNTQILFYVSTGK | 0.0545 |
| HMIKDSKAAYKILGVDENATNEEIKKAYRQLVINHHPDKVSHLGEDIQRAANEKLKQINAAYDEIKKQRGF | 0.171 |
| HMPSYYKELQNYSPENPVVKKRKVHPDVVNAIKYLAEITDGNPMLIKAYAQMILAHVFTTMPLIDKSV | 0.22 |
| HMSYTYPVARLNHIKGKWYVLVSVPAHLRHLFPNQRDLRRSTGTDDESLAKRKQHALAQEIYDLFD | 0.00145 |
| HMQMSERENTILLTKRYIERGEYERAMNLLDSLLIKNALDEEALAMIDEIIALKAGASLQDFPRY | -1.48 |
| HMRIATVTPIEEDQASDRVVAVYNDIKSTKQIDFIPNFWKVIAVNPDLLEQVWGQLKTLMHPEEVG | -0.948 |
| HMHYALTVDFPAALEARIDPAHRAALRGVLAHDPRPSYQSDPERLYGVAFAGKNVKFTVEDGVLTVRKIEE | -0.267 |
| HMLDNHPQSKKIRALWLEMAAAGVVRDSSEQALALWVKRETGISALRWLSNEQASSVIEKLKKWQRRAAG | -0.0161 |
| HMTNKKIILEIFQNSDKPLIVEEISKKMFEKTGKKMILSTIYRNLKNMEDVGILKKIYNEDGSYMYIF | -1.07 |
| HMGRKPATTIPLQVRNAVLDLYRTKYYGANFQHYTELLHEHEGIRISTSSVAKILEAEYILSPK | -0.838 |
| HMNLQAYQSVLDKLNEEYGTTFRFPTEEELHEVGLTNTVDPRTATVSATEFEKYMRPIAERISQANL | -0.315 |
| HMGKSETALELIKRGHRLIADDAVEITRIGSTLSGTAPELIRNYLEVRGVGVIDVEKLFGVGAVQDSTQI | -0.0577 |
| HMELLTYREMDVLNLLDQRLTNKEIAHALGISTETVRQHTVNLFRKLNVDNRRQAIVVARSLGYIGTPT | -0.894 |
| HMSFNTNENKNLLWELMNKHNLFKDIDNQHYQEVQKLFEEEIVFISNNNKSLDLVEQNKKFLSSIITKLNK | -1.2 |
| HMSKQEFVDRLRVSLSGKISPASVEDNARYYEDYINTHIRLGEPEEDVLEGLGDPRLIARSIVAAESV | -0.0405 |
| HMEFTFTLPRGYIDDTGMIHREGTMRLANAADEILPLKDPRVQQNPGYLTIILLARVITKLGSL | -0.165 |
| HMDIASNQIQGIKDSVGGDENYSKMVAWALESLPAEEVKAFNDLTETANAPAIKMAVQGLYSQYNNAM | -0.9 |

| Sequence | soluble fraction (log2) |
| --- | --- |
| HMRGFGEVGQLPSGRYRARYTGPDGGRHSAPITFVARIDAEGWLVDQERMISRGEWEPPARQ | -0.384 |
| HMKSLLTARQLEVFEIARNKGYWTTPRKISLVELSKLLDISKSTLSVLLHSIEGKVMEEFYEEIRQ | 0.0209 |
| HMIDYIKYTVDGKTYELINNWDGTWSRELEAPLVAGRYDLLLEISQNGLVTYIDSSDPRYEFYLDVI | -2.3 |
| HMVAPNSEATTKLIIEKTKYANESPAILMGFKATATMLMAKHVVLPTSKYAYFNEGRALLEKAIK | 0.278 |
| HMGVITVRPPIVVRDFAIALNLKPFQVIGNLMELNKVVSVSSVIEEADARKVAERHGYTLEIRH | -0.133 |
| HMKSYAQIAEILSGQQPNTSRKEGSNLAVHADWIDALIAKYGTALRPEEANEVVKKEIGIVFSHVLEN | -1 |
| HMQKDYKTRLQEYYAKVGKKVNYMDSSTGPDHDKKFQTQVFLDKEIIGVGEGKSKKSSQQEAAKQALEKI | ≥ 0.43 |
| HMEDKIEESLEDNISELFAKTKDKYTLINDLYSKGYTVEELSRFSGLPSGEVRLVISLNSKN | -0.183 |
| HMTFFDDLLYQAKAAVDNDPSIKPSLHNRAIIEILYQQGVFNMKNAVEHVAELLEISKNTVYLHLRSVKG | -0.976 |
| HMEDKPITKEQKQAMFALLREHFSGDEGNAVYTAVLEREGLAPGDKIMSSVYDRLIDGINEAIRQKLEAGA | -0.133 |
| HMRGLIEPLSQRELEVLMLMARGQSNAHIADQLNISENTIKWHGRNIFGKLGVSNRTEAVITSQEMGMLAT | -0.711 |
| HMDIEITIPPEAKELDVSKILISGNIITDEQEFLDYLKQNNVAAFKDGNYKLNKNMTTEEIVNQIK | -1.2 |
| HMSLLLTPREASVWASEYLGKKVTSNNIIYLLNYGKIANHSTDLKENLIDKNELKIYYDSTIKSQKH | 0.00309 |
| HMEAYDTMEDRTTLAPGFAKLDKRERYILHLRFFEGLTQSQIAERVGISQMHVSRLIRRSLEKLREEIGD | -0.4 |
| HMNSTNYQVIITANGGLNIRAGASTAYARIGGYAKGTVVTILAESNGFGKTDKGWISLNYTSKDLD | 0.148 |
| HMLSSAAAIDRILAGGTAAMNHRQFDAALTSFNTVIEMRPDFAEGWNKRATLYYLIGEYERSIADVERTLA | 0.0555 |
| HMGESYGPVRRGETLWSIAEKVKPAGVSTQKELAAIYAANPQAFIRGDINLLKAGAELRLPSPEAL | -0.0107 |
| HMGQKASEVEKIFVELQQQIIRGDLPPGYRLVESQIAAQFGVSRTPARLAIERLATAGLVAHETNRGATVH | -0.36 |
| HMKELLDRIFLHETMRRVSQDATITFSKKVYEVPQKFIGRQVTVQYDPEDLSRVYVKDLNFPEPVMVYPVQ | 0.0825 |
| HMGRELSDLELSLLRILDDKIPLLIDEAADRLQLPVAQVLSAVTIMEIDGLIRREGMRKYLRTVEVEETK | -1.3 |
| HMAMSDFDALSNRISTLSQGRASAVRMKDGIVSLVLDIGGLSAEERKAMTAAIEGEGRGYPSVTQVRILET | 0.0485 |
| HMGASLVIVPGAGFLRVSASSQTRLDVYSITGMRVRSVDFEPGTTEIELPAGFYIAGGRKFFV | -0.124 |
| HMQQVIQSGQKVQLMATDGSFQVSAEGVALKNGSVGEVIGVRMPSGRVISGVVSASGAVEVR | 0.0769 |
| HMRSAKEYKAIREEIYRFIGAYITKHVYAPSNKEIAEAVGISGTTVHRHLIDMIDEGILETD | -1.29 |
